Measurements reported in patent US20220401521A1 (NANJING HANXIN PHARMACEUTICAL TECHNOLOGY, published 2022).
No end group written: not given here.

Experiments:
[1] = molecular target: melanocortin receptor 2 (MC2R); test: cell-based or functional assay
[2] = molecular target: melanocortin receptor 2 (MC2R); test: cell-based or functional assay; remark: listed apart in the source

Chain of melanocortin receptor 2 (MC2R) (Q01718 whole entry): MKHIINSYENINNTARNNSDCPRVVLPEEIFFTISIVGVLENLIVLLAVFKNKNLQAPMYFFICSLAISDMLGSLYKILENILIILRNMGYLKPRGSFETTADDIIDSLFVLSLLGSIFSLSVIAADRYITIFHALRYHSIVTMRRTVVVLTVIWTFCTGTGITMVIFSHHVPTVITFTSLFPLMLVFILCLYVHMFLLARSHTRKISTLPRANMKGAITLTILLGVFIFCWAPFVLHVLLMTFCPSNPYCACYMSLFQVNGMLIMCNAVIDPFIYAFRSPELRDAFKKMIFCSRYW

Binder | activity of high-purity ACTH relative to low-purity ACTH (calcium ion signal, MC2R cells) [1] [fold] | EC50(nM), calcium ion signal in CHO-K1 cells expressing MC2R [2] [nM]
SYSMEHFRWGKPVGKKRRPVKVYPNGAEDESAEAFPLEF (also: acetate salt) [high-purity ACTH (human sequence SEQ ID NO: 3, 99.88%)] | 1.6 | 180
SYSMEHFRWGKPVGKKRRPVKVYPNGAEDESAEAFPLEF [low-purity ACTH (human sequence SEQ ID NO: 3, 75.72%)] | – | 288
